Test results as given in US20090118127A1.

Molecular target: extra-cellular domain of recombinantly expressed RSV F protein (human Respiratory Syncytial Virus)
Experiment: Biacore (SPR)

extra-cellular domain of recombinantly expressed RSV F protein (human Respiratory Syncytial Virus), sequence (P03420 26-524): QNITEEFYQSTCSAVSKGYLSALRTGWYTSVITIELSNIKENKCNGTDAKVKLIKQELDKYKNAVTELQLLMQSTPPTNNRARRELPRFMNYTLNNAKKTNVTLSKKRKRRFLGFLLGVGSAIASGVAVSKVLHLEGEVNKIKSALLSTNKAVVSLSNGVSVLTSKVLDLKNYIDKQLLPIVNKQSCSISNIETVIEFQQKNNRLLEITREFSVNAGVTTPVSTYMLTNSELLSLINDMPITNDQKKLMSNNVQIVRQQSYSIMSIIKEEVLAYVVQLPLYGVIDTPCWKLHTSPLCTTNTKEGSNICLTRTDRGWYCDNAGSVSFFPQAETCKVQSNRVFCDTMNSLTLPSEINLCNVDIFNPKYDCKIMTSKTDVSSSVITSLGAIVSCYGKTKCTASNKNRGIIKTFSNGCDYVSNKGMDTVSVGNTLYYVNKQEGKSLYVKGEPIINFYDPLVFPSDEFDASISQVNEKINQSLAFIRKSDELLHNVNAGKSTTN

Substance: SYNAGIS® brand of pavilizumab (antibody)
- Kd: 0.4 nM

Substance: Numax™ (antibody)
- Kd: 0.24 nM
